Legend:
Human PCSK9 = Human PCSK9 (human, UniProt Q8NBP7 31-692); assay: SPR, 37 C, physiological buffer, n=6, Avg ± SD
Rat PCSK9 = Rat PCSK9 (rat, UniProt P59996 31-691, limits assumed); assay: SPR, 25 C, n=2
Mouse PCSK9 = Mouse PCSK9 (mouse, UniProt Q80W65 35-694, limits assumed); assay: SPR, 25 C, n=3
[1] = molecular target: T1, hPCSK9 160-181 synthetic peptide (human); assay: binding kinetics to synthetic peptide, reference intact human PCSK9
T1 construct: Numbered on complete human PCSK9 including the twenty-eight amino acid signal peptide
T1 peptide: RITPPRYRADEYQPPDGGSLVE

[2] = molecular target: T2, Recombinant full length PCSK9, C-terminal HIS-tagged (HEK 293 stable cell line) (human, UniProt Q8NBP7 31-692); assay: AlphaLISA, inhibition of PCSK9 (1 nM) binding to FLAG-tagged LDLR extracellular domain (1 nM)
T2 construct: also called C-terminal HIS-tagged recombinant human PCSK9; not shown: C-terminal HIS tag
T2 sequence (Q8NBP7 31-692 limits assumed): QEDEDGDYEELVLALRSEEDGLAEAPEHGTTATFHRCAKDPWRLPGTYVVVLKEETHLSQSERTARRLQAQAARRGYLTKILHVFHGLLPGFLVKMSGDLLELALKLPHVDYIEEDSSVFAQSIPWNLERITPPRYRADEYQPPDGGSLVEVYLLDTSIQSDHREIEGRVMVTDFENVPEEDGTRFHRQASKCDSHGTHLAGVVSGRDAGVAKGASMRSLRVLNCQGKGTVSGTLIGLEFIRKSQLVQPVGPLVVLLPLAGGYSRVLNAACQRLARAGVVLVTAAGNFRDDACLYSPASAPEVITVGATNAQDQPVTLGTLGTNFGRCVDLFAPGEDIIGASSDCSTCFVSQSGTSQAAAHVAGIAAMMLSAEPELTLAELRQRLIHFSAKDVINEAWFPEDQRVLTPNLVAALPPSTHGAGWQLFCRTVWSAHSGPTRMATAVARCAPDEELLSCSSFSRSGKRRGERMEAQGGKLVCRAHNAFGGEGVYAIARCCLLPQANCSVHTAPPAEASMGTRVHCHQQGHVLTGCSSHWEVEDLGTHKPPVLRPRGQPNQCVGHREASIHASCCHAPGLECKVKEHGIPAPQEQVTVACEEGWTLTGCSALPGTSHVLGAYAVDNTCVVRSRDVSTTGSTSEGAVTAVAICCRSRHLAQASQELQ

[3] = molecular target: Cyno PCSK9 (cynomolgus monkey); assay: SPR, 37 C, physiological buffer, n=4, Avg ± SD
mature hPCSK9 C-term His = molecular target: T3, mature hPCSK9 C-term His (human, UniProt Q8NBP7 29-692); assay: binding kinetics (method not named in Example 3)
T3 construct: also called intact human PCSK9; intact PCSK9
T3 sequence (Q8NBP7 other isoform, or with tags, fused parts or gaps limits assumed): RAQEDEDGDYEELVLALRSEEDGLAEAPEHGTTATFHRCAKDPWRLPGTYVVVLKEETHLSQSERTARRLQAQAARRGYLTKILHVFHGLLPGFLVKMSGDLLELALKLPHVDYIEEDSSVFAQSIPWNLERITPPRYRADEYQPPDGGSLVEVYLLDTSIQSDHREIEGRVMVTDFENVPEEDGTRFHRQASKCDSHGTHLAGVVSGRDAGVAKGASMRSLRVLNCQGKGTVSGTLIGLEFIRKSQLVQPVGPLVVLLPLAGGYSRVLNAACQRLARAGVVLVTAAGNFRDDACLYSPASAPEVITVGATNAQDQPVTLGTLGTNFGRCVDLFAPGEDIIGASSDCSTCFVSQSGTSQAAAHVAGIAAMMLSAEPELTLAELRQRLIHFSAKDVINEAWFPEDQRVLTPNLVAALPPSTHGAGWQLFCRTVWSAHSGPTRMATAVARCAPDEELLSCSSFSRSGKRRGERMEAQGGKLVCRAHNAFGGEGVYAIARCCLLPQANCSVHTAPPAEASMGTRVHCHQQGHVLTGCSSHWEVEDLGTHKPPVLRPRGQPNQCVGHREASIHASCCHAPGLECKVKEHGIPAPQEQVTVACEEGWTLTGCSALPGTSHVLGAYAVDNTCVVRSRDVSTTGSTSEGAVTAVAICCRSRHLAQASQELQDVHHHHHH

[4] = molecular target: T4, hPCSK9 166-181 synthetic peptide (human); assay: binding kinetics to synthetic peptide (method not named in Example 3)
T4 peptide: YRADEYQPPDGGSLVE

[5] = molecular target: T5, hPCSK9 163-174 synthetic peptide (human); assay: as above
T5 peptide: PPRYRADEYQPP

[6] = molecular target: T1, hPCSK9 160-181 synthetic peptide; assay: as above

Chain of Human PCSK9 (Q8NBP7 31-692 limits assumed): as the sequence (Q8NBP7 31-692 limits assumed) above
Chain of Rat PCSK9 (P59996 31-691 limits assumed): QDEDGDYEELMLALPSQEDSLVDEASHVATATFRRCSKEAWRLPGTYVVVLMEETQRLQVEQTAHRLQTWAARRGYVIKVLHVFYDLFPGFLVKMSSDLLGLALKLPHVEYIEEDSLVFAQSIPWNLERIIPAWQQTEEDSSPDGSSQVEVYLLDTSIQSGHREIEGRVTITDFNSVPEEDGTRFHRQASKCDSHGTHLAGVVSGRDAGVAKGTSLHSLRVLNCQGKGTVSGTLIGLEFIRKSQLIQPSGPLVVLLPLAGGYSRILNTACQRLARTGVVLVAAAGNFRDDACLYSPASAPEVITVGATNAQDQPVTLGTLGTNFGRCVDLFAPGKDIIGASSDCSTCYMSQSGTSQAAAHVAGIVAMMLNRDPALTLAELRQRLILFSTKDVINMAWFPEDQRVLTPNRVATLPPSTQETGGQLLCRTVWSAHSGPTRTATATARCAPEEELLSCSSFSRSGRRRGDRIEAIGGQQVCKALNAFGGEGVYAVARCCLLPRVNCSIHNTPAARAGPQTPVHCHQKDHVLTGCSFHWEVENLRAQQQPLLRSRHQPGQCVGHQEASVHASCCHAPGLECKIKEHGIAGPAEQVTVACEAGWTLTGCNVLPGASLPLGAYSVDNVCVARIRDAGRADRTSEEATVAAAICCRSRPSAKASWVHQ
Chain of Mouse PCSK9 (Q80W65 35-694 limits assumed): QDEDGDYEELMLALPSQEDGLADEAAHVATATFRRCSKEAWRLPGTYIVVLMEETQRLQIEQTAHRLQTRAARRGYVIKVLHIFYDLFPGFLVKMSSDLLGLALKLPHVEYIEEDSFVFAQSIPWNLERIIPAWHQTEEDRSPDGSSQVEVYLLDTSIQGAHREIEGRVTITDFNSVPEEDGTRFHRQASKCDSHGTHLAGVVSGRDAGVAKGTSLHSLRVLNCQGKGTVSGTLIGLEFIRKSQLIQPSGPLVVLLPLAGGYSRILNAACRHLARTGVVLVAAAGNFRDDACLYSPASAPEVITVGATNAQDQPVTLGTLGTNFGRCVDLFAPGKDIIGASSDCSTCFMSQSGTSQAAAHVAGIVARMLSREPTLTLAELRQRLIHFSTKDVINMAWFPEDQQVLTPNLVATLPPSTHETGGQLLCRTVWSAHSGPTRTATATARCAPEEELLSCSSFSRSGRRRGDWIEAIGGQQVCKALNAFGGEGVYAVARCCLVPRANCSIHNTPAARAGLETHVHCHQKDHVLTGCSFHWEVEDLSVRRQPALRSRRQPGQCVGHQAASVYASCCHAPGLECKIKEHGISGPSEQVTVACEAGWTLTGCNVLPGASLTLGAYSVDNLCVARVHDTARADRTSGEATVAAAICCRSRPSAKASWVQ

Kd (Human PCSK9): 11 nM
koff (Human PCSK9): 0.0012 s⁻¹
kon (Human PCSK9): 120000 M⁻¹ s⁻¹
binding result (Rat PCSK9): no binding
binding result (Mouse PCSK9): no binding
koff fold difference against intact PCSK9 [1]: ≤ 2 fold
IC50 [2]: ~0.09 nM
Kd [3]: 25 nM
koff [3]: 0.0025 s⁻¹
kon [3]: 110000 M⁻¹ s⁻¹
Kd (mature hPCSK9 C-term His): 1.8 nM
koff (mature hPCSK9 C-term His): 0.00015 s⁻¹
kon (mature hPCSK9 C-term His): 86700 M⁻¹ s⁻¹
Kd [4]: 34 nM
koff [4]: 0.156 s⁻¹
kon [4]: 4.58e+06 M⁻¹ s⁻¹
Kd [5]: 3 nM
koff [5]: 0.00831 s⁻¹
kon [5]: 2.75e+06 M⁻¹ s⁻¹
Kd [6]: 0.17 nM
koff [6]: 0.000242 s⁻¹
kon [6]: 1.45e+06 M⁻¹ s⁻¹
B1: engineered PCSK9 antibody of Example 1 (antibody, human IgG4 S228P, kappa, F234A L235A, V domains shown)
VH: EVQLVESGGGLVKPGGSLRLSCAASGFPFSKLGMVWVRQAPGKGLEWVSTISSGGGYTYYPDSVKGRFTISRDNAKNSLYLQMNSLRAEDTAVYYCAREGISFQGGTYTYVMDYWGQGTLVTVSS
VL: DIVMTQSPLSLPVTPGEPASISCRSSKSLLHRNGITYSYWYLQKPGQSPQLLIYQLSNLASGVPDRFSGSGSGTDFTLKISRVEAEDVGVYYCYQNLELPLTFGQGTKVEIKR
notes: the controls used are IgG4; also called test PCSK9 antibody
